T1: prefusion-stabilized hMPV F protein (hMPV prefusion F trimer) (human metapneumovirus; subgroup/strain …, stabilised)
T1 chain 1: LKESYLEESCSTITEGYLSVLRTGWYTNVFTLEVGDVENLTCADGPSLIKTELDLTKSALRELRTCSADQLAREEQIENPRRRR
T1 chain 2: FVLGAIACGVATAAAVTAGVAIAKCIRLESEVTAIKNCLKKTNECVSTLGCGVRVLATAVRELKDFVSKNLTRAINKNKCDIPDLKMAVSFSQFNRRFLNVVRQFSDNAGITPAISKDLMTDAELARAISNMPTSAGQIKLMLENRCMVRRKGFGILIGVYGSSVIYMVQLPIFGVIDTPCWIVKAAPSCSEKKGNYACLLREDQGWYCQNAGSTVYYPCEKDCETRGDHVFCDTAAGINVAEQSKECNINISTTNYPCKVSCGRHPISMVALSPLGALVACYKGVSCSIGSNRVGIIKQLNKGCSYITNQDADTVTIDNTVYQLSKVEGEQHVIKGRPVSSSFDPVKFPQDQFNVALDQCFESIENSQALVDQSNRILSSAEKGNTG

T2: prefusion-stabilized hMPV F construct hMPV F-DS-CavEs2-IPDS (human metapneumovirus, N-linked glycans (Asn172, Asn57))
T2 chain: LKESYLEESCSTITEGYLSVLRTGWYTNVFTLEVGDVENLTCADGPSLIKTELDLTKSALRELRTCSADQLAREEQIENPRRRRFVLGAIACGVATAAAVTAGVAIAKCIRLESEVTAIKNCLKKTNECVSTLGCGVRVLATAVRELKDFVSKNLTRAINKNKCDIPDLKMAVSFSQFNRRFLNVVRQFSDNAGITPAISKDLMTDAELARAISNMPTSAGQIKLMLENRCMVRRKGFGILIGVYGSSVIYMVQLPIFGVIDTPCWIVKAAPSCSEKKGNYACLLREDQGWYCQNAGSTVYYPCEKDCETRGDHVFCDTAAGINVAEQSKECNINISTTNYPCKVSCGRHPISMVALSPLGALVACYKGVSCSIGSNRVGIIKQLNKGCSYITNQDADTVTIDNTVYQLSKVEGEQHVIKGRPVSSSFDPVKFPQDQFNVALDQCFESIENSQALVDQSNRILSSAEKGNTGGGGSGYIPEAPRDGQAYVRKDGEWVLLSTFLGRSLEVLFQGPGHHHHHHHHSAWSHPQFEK


How the values were obtained:
[1] = target: prefusion-stabilized RSV F protein (RSV prefusion F trimer) (human respiratory syncytial virus A, …, UniProt P03420, stabilised); test: ELISA
[2] = target: T1, prefusion-stabilized hMPV F protein …; test: cell-based or functional assay
[3] = target: T2, prefusion-stabilized hMPV F construct …; test: cryo-EM structure

| Binder | binding result [1] | PRNT neutralisation of hMPV 97–83 and hMPV TN/93–32, IC50 [2] [ng/mL] | stoichiometry N [3] [Fabs per trimer] |
| --- | --- | --- | --- |
| monoclonal antibody 5–1 (recombinant human IgG1) (antibody, V domains shown) VH: QGQLVQSGPEVKKPGATVKVSCRASAYPFGNYGITWVRQVPGQGLEWVGWISAYTGHTKFPQNFQGRVTLTADTSTSTGYMELRSLTSDDTAVYYCARGPCCSSPRPYDIWGQGTMVTVSS VL: DIQMTQSPSTLSASVGDRVTITCRASQSIDDWLAWYQHSPGKAPKLLIYRASRLESGVPSRFSGSGSGTEFTLTISSLQPDDFASYYCQQCYTYSQTFGQGTRVEIK | binds | < 10 |  |
| 5–1 antigen-binding fragment (Fab) (Fab, V domains shown) VH: QGQLVQSGPEVKKPGATVKVSCRASAYPFGNYGITWVRQVPGQGLEWVGWISAYTGHTKFPQNFQGRVTLTADTSTSTGYMELRSLTSDDTAVYYCARGPCCSSPRPYDIWGQGTMVTVSS VL: DIQMTQSPSTLSASVGDRVTITCRASQSIDDWLAWYQHSPGKAPKLLIYRASRLESGVPSRFSGSGSGTEFTLTISSLQPDDFASYYCQQCYTYSQTFGQGTRVEIK |  |  | 3 |

From publication PMC11565947 (bioRxiv, 2024)
